Changes are numbered by the printed parent chain.
Tests used:
Test in all cases: pull-down; 15 μg GST-tagged τ131 on Glutathione Sepharose 4B; 300 nM τ138 or Bdp1, or 1 μM Brf1–TBP; 50 mM Tris pH 7.5, 150 mM NaCl, 2 mM DTT, 0.1% Tween20; 4 °C, 4 h
Settings in all cases: both partners purified
[1] = biological target: T1, GST-tagged τ131 (1–580), wild type (S. cerevisiae, UniProt P33339 1-580)
T1 construct: τ131 (Tfc4) of S. cerevisiae TFIIIC, residues 1-580 (extended N terminus and TPR array); also called GST-τ131 (1–580); longer τ131 protein; source: E. coli BL21 (DE3) Gold, purified (GST column, S200 SEC)
T1 sequence (looked up): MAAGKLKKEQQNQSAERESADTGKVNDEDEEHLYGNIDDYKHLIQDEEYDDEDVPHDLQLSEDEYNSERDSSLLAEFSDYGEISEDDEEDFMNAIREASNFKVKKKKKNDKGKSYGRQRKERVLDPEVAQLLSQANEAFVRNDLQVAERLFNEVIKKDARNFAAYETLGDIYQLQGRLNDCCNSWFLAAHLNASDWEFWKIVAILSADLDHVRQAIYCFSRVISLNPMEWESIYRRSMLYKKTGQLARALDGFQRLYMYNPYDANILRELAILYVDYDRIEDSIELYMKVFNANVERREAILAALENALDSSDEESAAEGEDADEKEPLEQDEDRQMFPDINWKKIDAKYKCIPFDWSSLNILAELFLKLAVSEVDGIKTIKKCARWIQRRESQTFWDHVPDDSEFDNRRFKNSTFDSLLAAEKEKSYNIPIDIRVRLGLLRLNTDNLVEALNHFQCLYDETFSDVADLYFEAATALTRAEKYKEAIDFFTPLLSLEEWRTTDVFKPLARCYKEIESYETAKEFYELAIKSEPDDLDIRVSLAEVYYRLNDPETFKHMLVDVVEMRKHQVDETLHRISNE

[2] = biological target: T2, GST-tagged τ131 (1–580) L469K (S. cerevisiae, UniProt P33339 1-580, L469K)
T2 construct: τ131 (Tfc4) of S. cerevisiae TFIIIC, residues 1-580, point mutant; also called L469K mutant of τ131 (1–580); source: E. coli BL21 (DE3) Gold, purified (GST column, S200 SEC)
T2 sequence (looked up): T1 sequence (looked up) with L469K

[3] = biological target: T3, GST-tagged τ131 (1–580) D468K (S. cerevisiae, UniProt P33339 1-580, D468K)
T3 construct: τ131 (Tfc4) of S. cerevisiae TFIIIC, residues 1-580, point mutant; also called D468K mutant of τ131 (1–580); source: E. coli BL21 (DE3) Gold, purified (GST column, S200 SEC)
T3 sequence (looked up): T1 sequence (looked up) with D468K

Measured: binding result

B1: Brf1–TBP fusion protein Brf1 (1–382)-TBP (61–240)-Brf1 (439–596) (other, UniProt P29056 1-382, looked up)
chain: MPVCKNCHGTEFERDLSNANNDLVCKACGVVSEDNPIVSEVTFGETSAGAAVVQGSFIGAGQSHAAFGGSSALESREATLNNARRKLRAVSYALHIPEYITDAAFQWYKLALANNFVQGRRSQNVIASCLYVACRKEKTHHMLIDFSSRLQVSVYSIGATFLKMVKKLHITELPLADPSLFIQHFAEKLDLADKKIKVVKDAVKLAQRMSKDWMFEGRRPAGIAGACILLACRMNNLRRTHTEIVAVSHVAEETLQQRLNEFKNTKAAKLSVQKFRENDVEDGEARPPSFVKNRKKERKIKDSLDKEEMFQTSEEALNKNPILTQVLGEQELSSKEVLFYLKQFSERRARVVERIKATNGIDGENIYHEGSENETRKRKLSESGIVPTLQNIVATVTLGCRLDLKTVALHARNAEYNPKRFAAVIMRIREPKTTALIFASGKMVVTGAKSEDDSKLASRKYARIIQKIGFAAKFTDFKIQNIVGSCDVKFPIRLEGLAFSHGTFSSYEPELFPGLIYRMVKPKIVLLIFVSGKIVLTGAKQREEIYQAFEAIYPVLSEFRKMPRNLHLLPTTDTYLSKVSDDPDNLEDVDDEELNAHLLNEEASKLKERIWIGLNADFLLEQESKRLKQEADIATGNTSVKKKRTRRRNNTRSDEPTKTVDAAAAIGLMSDLQDKSGLHAALKAAEESGDFTTADSVKNMLQKASFSKKINYDAIDGLFR
notes: Brf1, subunit of TFIIIB, residues 1-382; TBP, subunit of TFIIIB, residues 61-240; Brf1, subunit of TFIIIB, residues 439-596; source: E. coli BL21 Star (DE3) pRARE, purified (Ni-NTA, HiTrap SP); not shown: His6, C-terminal, kept
binds: all assays above

— PMC4490372, “Architecture of TFIIIC and its role in RNA polymerase III pre-initiation complex assembly” (Nature Communications, 2015)
